Biological target: OC43 spike protein (FL-GCN4-Avi-His, 2P, biotinylated) (human coronavirus OC43, strain of …, UniProt P36334, stabilised, biotin on the Avi tag)
Experiment: ELISA
Conditions: both partners purified

B1: COV2-2449 IgG (antibody, V domains shown)
VH: QVQLVESGGGVVQPGRSLRLSCATSGFTFSSFALHWVRQAPGKGLEWVTVISDDGNNKYYVDSVKGRFTISRDNSKNTLFLQMNSLRVEDTAIYYCARASYNSNWSIGEYFRDWGQGTLVTVSS
VL: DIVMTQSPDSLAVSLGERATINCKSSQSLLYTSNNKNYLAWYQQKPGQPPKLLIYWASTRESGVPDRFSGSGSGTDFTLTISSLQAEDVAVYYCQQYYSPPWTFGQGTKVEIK
- binding result: binds
